{
  "source": "paper PMC7968997",
  "experiment_in_all_cases": "fluorescence polarization",
  "key": {"RBM45 RRM1-2 WT": {"target": "T1, RBM45 RRM1-2 WT (Homo sapiens, UniProt Q8IUH3 23-202)", "T1 sequence": "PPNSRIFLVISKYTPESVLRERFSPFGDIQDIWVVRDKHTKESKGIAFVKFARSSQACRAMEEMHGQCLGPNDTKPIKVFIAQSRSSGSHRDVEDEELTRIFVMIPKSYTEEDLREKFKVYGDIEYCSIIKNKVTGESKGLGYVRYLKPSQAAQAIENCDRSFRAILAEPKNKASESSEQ"}, "RRM1 analog F70A": {"target": "T2, RRM1 analog F70A (Homo sapiens, UniProt Q8IUH3 23-202, F70A;F124A;Y165A)", "T2 sequence": "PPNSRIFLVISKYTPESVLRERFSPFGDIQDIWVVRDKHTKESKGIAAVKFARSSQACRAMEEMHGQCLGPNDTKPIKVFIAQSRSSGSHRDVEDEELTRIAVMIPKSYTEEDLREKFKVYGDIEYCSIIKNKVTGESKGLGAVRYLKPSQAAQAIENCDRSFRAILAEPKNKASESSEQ"}, "RRM2 analog Y165A": {"target": "T3, RRM2 analog Y165A (Homo sapiens, UniProt Q8IUH3 23-202, F29A;F70A;Y165A)", "T3 sequence": "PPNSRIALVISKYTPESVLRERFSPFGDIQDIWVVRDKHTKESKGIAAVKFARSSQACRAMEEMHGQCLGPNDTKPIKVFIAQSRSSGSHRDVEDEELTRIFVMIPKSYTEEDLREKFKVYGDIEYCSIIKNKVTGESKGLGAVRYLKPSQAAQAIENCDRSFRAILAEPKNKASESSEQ"}, "RRM1 analog D114A": {"target": "T4, RRM1 analog D114A (Homo sapiens, UniProt Q8IUH3 23-202, D114A;F124A;Y165A)", "T4 sequence": "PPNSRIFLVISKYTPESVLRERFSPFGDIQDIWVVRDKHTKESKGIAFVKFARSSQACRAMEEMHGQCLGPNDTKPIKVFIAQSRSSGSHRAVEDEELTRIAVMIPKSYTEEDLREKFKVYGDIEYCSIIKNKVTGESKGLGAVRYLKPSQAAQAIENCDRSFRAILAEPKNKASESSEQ"}, "[1]": {"target": "T5, RBM45 RRM1-2 F29A/F70A (RRM2 analog) (Homo sapiens, UniProt Q8IUH3 23-202, F29A;F70A)", "T5 sequence": "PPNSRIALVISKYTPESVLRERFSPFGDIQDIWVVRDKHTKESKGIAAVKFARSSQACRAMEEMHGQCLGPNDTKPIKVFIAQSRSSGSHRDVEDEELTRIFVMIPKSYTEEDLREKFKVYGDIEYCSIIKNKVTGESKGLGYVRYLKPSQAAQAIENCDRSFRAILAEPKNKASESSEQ"}, "RRM2 analog R122A": {"target": "T6, RRM2 analog R122A (Homo sapiens, UniProt Q8IUH3 23-202, F29A;F70A;R122A)", "T6 sequence": "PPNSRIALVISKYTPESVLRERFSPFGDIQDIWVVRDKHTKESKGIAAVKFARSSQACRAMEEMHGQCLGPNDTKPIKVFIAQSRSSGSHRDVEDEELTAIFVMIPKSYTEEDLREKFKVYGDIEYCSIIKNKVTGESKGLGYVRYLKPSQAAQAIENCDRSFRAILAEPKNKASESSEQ"}, "RRM2 analog F124A": {"target": "T7, RRM2 analog F124A (Homo sapiens, UniProt Q8IUH3 23-202, F29A;F70A;F124A)", "T7 sequence": "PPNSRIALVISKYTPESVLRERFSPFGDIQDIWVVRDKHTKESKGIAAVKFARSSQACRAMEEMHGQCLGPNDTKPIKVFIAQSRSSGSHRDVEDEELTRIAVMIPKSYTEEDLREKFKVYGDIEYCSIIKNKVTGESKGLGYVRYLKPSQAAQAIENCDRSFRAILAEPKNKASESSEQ"}, "RRM1 analog K100A": {"target": "T8, RRM1 analog K100A (Homo sapiens, UniProt Q8IUH3 23-202, K100A;F124A;Y165A)", "T8 sequence": "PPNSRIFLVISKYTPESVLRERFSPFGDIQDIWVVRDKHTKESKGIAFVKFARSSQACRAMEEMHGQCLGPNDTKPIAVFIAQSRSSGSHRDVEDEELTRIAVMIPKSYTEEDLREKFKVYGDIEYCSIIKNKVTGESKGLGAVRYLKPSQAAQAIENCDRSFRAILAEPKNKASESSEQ"}},
  "data": [
    {"binder": "GGACGG (ssRNA)", "note": "[GGACGG RNA]", "values": [
      {"measurement": "Kd", "setting": "RBM45 RRM1-2 WT", "value": "0.457 ± 0.053", "unit": "µM"},
      {"measurement": "Kd", "setting": "RRM1 analog F70A", "value": 16.8, "unit": "µM"},
      {"measurement": "Kd", "setting": "RRM2 analog Y165A", "value": 20.4, "unit": "µM"},
      {"measurement": "Kd", "setting": "RRM1 analog D114A", "value": 1.13, "unit": "µM"},
      {"measurement": "Kd", "setting": "[1]", "value": "1.48 ± 0.11", "unit": "µM"},
      {"measurement": "Kd", "setting": "RRM2 analog R122A", "value": 18.7, "unit": "µM"},
      {"measurement": "Kd", "setting": "RRM2 analog F124A", "value": 15.6, "unit": "µM"},
      {"measurement": "Kd", "setting": "RRM1 analog K100A", "value": 4.59, "unit": "µM"}
    ]}
  ]
}
